The nature of the series: soluble fraction after stress (log2 fold change); higher = more stays soluble; pooled small domains, quantitative proteomics. The conditions noted are these: stress: 50 degC. In short, it runs like this: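 Quantitative proteomics served as the high-throughput read-out for pooled custom libraries of small protein domains. Each was stressed at 50°C. Aggregation propensity is expressed as the base-two log fold change in soluble protein after stress. A higher value means a larger share of the protein remains in solution.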

As to “HMTERIRLHDDIGSWVEKHGATRSALIPVLQGIQRSYNEISEYAMQEVADRLDIHPVEVYSVVSFYSF”, the “soluble fraction (log2)” value is -0.0419. Turning to “HMAAEGARNNSLFNSLRERALEVSSHNELEQIAFKMNETNIPPLRASEVISVVNSVWKNRISNQIIP”, the “soluble fraction (log2)” value was determined as 0.155. For the sequence “HMARTGSEELVGALATVREPLAPWGQVFVQGALWRARSADGGPVDAGQQVVVRAVEGLTLVVEPRD”, the “soluble fraction (log2)” value amounted to 0.00428. Next, “HMSSNLSLHKEGNKIVILGLEGKSVIEVYDLMGRLLSSQTNYNPKQEITLLQPVIIRVTDTQQTKSFKV”: -0.83; “HMKTRYPNVYQDEKGKFFYQIFIGTDTNGRKKLKKGRRDALGHPFSSAYQASKEAKRVQALYANVS”: -1.23; “HMDLRVKRTNKMIMEAFIHLVEQKGYDNITVQEIADEAMINRATFYAHFKDKQDLYDHIFKQAI”: -0.762. As for “HMSDRFVRIVMNDGTVKLGQMISEDADFIRLKTNNLGELNIPKYLVLDMMDLTRSEYVRLSISNAG”, the “soluble fraction (log2)” value came to 0.169. Take “HMEQKISVPALVGRDIEEILADTEVTGNFTIKEADKRVASNRPVGEVLEQDPGTGESAVKGTIITVTVSAG”: the “soluble fraction (log2)” value was determined as 0.0124. As to “HMRPIWVQLADDFRHRIVSGQWPPGSKIPSVRELAAETGVNPNTVQRALGALDGEGLTATERTAGRFVTT”, the “soluble fraction (log2)” value was -0.0768. Next, “HMSDSISLTLNGDLRRFRAHATIADLVRDIGLDPVKVAVERNLEIVSRSTLEDVVLADGDRLEIVHFV”: -1.33; “HMQATETFSLIVPMSSAGNRLDVVLSELLPNFSRKKIQDAIKNGDATLNGKAPKIRDKVYGGENITITLIL”: -0.432; “HMRAVPSIAFVTQKLIEQGVTMEQLVRSLLLDHEEYENDDSLERTADELFGKARMIISNYTPE”: -1.01.

Consider “HMVNDDTIAATEAEILALLADKHRHHITELNSIRRPYEQIDAALSSLINEEKIFQEDGMLFV”, for which the “soluble fraction (log2)” value turned out to be 0.144. For the sequence “HMDDIVPHSTKNHIIKTFLSLMNSLDIITDKNKKSLNQNVHIIFNKFNFSKKEANLFIGVLNRIQKALK”, the “soluble fraction (log2)” value came out at 0.552.

As to “HMEASSTAIQAMIRRLIDDENPRKPLSDAKLADLLKSSGIPVARRTVAKYREAMNISASHERVRI”, the “soluble fraction (log2)” value is -0.356. In the case of “HMEGIAEILPASVRQKYGLIGLYDALRGLHFPGNMEEIKAARQRLAFEDTLMFSLTLSMMQYS”, the “soluble fraction (log2)” value was -0.0198. As to “HMTETEIVIGGKYRHYKGGEYELVSIVKHSETLEELVIYKSLSTGEMWARPKSLFVGLVDGQPRYTL”, the “soluble fraction (log2)” value is -1.85.

Regarding “HMQFYSGLEARLMDPNTPEVFDDPISLMAFLQQKNISRVELEDNLLLPYLKEMAGQPIPKAELLEIIRK”, the “soluble fraction (log2)” value is -0.475. Next, “HMADKGTITNQQEKILKALILFPEGASIEEIQKAADLGIDKRQFQRRLNTLIESGQINRTGKSRGTKYHTI”: 0.0555; “HMEYKTGIINTNKVRVRNAADADATVIFAINKDIKVKILAEENGFYKIGVSVKNRGNGEDLIGFVKKELIT”: -0.631. Consider “HMDFPYISGIEIAAIKNREFIRIETDKAQEIAIALDKSGIPFSARFSDAEMVLTYDGSYKEQVEDIIAKA”, for which the “soluble fraction (log2)” value is -0.0417. The result for “HMAEQDILQSVYPHIGGQDNVSRTISRNGTLYLMLKDASAVDLKAVKQVPGIADAALERGRLTLQLEE” reads 0.0398; that for “HMSARKVTVALHTRDHADRLRRLLKHEGVSADLVAARLSHKLTDHPIEVRVNEDDIPAVLRIIENIEIF”, -1.31.

On to “HMGSGQIRYITENTVRVVYGTSKENEFVFQDGKPYPKDTPYHIHYTRNLEEYFMSGVEHDKNSKIILKVD”, for which the “soluble fraction (log2)” value was -0.803. Next, “HMDQNVSVPKLAGLQVEEANAILKSKGLHIEIIDSIYQKDAVPGAIIEQVPEENSKVKKGRAIYVSVYAK”: -0.227. With “HMIRSNLAEQAYAQLKALIHDFQLLPGDRFSENEMGTRLGVSRTPVREALFRLRNEGFLEVESKAGWYVK”, the “soluble fraction (log2)” value was -2.38.

On to “HMNGEAQTMYVTARTLNVRKGPGTSYAKAGTLSRGTAVQVVGFSGNWAKLSNGYYVSTSYLAKI”, for which the “soluble fraction (log2)” value is -1.32. Regarding “HMKDYKSALQELIQSGDKRVISYHTLKETGPSHNREFEAAVKLDGNIILGVGKGKTKKEAEQNAAHEALKK”, the “soluble fraction (log2)” value was found to be 0.172. For the sequence “HMSTILERLIMLQEQSGMNQKQLQKELGLSNSAFSDWKKGKGRPSVEALVRFSEFFGVSMDWLAFG”, the “soluble fraction (log2)” value is -2.09. On to “HMDEETVALQKAIHSLPPKQQAVFNMRYYDEMSFREIADANETTESSAKANYHFAKAKIIEQMKR”, for which the “soluble fraction (log2)” value came to 0.101. With “HMRVGADLTQRERELLALMAQGMSNQEIAKRLEIAVPTVKFHITNILDKLQVGNRTEAVIAALEHKLVP”, the “soluble fraction (log2)” value is -0.58. As to “HMEDKFEYQGELKSLIEPTSFSELVSALNVRDTLQAIIDFAMREEDTSGYEELKVRQNDYIQEYLNSIGNF”, the “soluble fraction (log2)” value is -1.04. For the sequence “HMKTERTVRVQDQHLHYTLEEKPIKNVNLRIRPDGSVYVSAPFGTSRTLIDDFVASKSKQILAIQQAQSAM”, the “soluble fraction (log2)” value is -0.0134. Consider “HMQQGVEQLPVTEVGGRLMHYYEVQPKETLYSLSHKLGVGQEYIEQHNPSVRGGLRAFMTLYFPAA”, for which the “soluble fraction (log2)” value is -0.0212. Consider “HMTKMTPNRQLVLSVLQSSGKPLSAYELLDRLREQGTQWQPPTAYRALDYLVEQGLAHYLQSIQKYV”, for which the “soluble fraction (log2)” value was -1.1.

“HMEEIALTDILNRFLSSLSLEQRKIFMRRYWYLSPIKEIATEYGMSESKIKMSLFRSRNELKKLLEKEGI”: the “soluble fraction (log2)” value is -0.396.

In the case of “HMLIRKGVVSFFNDAKGYGFIKDLVTQESAFVHVNSLSETIKEHDKVTFEVEMGHKGANAVNVKLVK”, the “soluble fraction (log2)” value is -1.03. With “HMNAQLTTQEAADLLNVSRPHLVKLLEDGELPFLRTGKHRRVRLADLLQFKNAREQASVQAMDELSRQAQ”, the “soluble fraction (log2)” value is 0.154. As for “HMISFTDLEHIEKMIENVLYTKTPLNLPPTDAKIRKIEHQIARRYGLNSESFGDEPRRFVVVYPNEERE”, the “soluble fraction (log2)” value was -0.625. For the sequence “HMSLAVFLQGLLEEKQLKKADVIRRTGMEPTYGYHIFDGHKKHPARSKVLLLALAMGLTVKEAQHLLYYAG”, the “soluble fraction (log2)” value is -0.116. For “HMTGMEASLSKLLQGEQFADLRKALIDKGIRKLEAFKRLNLWVFMNRNRLYSIGQRQTVYSTLQRALASE”, the “soluble fraction (log2)” value worked out at 0.0329. Regarding “HMGAGKVVDGVTYDFVFDVDVADGQPPLRLPYNRGEDVYQAAERFILRNELPATYREQIVNFIVQNTPG”, the “soluble fraction (log2)” value is -0.131.

With “HMGGRRHANMSREEEAAFLAPFFEKAAQGGILVVREIRQALDAHLGRTVPLSTVYNLLHRHNWRKL”, the “soluble fraction (log2)” value was -2.71. On to “HMSVPSVAAVREQTGLSQVKFASLLGVSVRTLQEWEQGRRAPSGAARTLLMVAAKNPQALLEV”, for which the “soluble fraction (log2)” value is -0.584. Consider “HMEKPTRNKLVEIIIQNKNVTTEQMANLLNISRRAVAKHIKKLQEEGIIRRIGPDFGGHWEIVK”, for which the “soluble fraction (log2)” value stood at 0.0258. Take “HMPNNNDIVLDRVSFGYHEKEVLHGIDMTIREGTVNALVGPSGSGKSTIAKLIAGLWDVDGGSISF”: the “soluble fraction (log2)” value stood at 0.154.

As to “HMGSTATVIASRLNMRASASTTGALLTKIPNGATVTVLGTTGAWSHIRYGSYTGYVMSQYLRING”, the “soluble fraction (log2)” value is -0.203.

Regarding “HMGKHYLLKDDNGTITIYKILEDGTQEVYEKTEISTTYLPQTDNIGIKQGIRVNGDEALNELIENF”, the “soluble fraction (log2)” value is -0.0212.

For the sequence “HMKDLIGEAKAKELALGHAKLSASDVTFIHVELDWENGRRVYDVEFYSGAKEYDYEIDAKTGEIVSFDY”, the “soluble fraction (log2)” value was -1.27. Regarding “HMGFSKGKRDLIRMIKLAIRELADDNGRAQIEDVITRLVQEGHSRDEIRLQIDMFLRQGEAMEPKQGIIKL”, the “soluble fraction (log2)” value was 0.325. Take “HMGNWEQQLRSWADGELATGKQDILTTAVPAFERALIETALSHTNGRKRDAAELLGWGRNTLTRKLKELGM”: the “soluble fraction (log2)” value is -0.371. Consider “HMFINITAITGNNYNTPDAARNALPNTYNKKIGLVFTYRDLTNRYRVYLYNSETSNYIPLDSYM”, for which the “soluble fraction (log2)” value is -3.39. As for “HMLTTADLMMVHANSNKAIDYIVTDDNTKLTVDEPVTAKWITTADSIYRAVAYYNKVGDGKAQIVSVGN”, the “soluble fraction (log2)” value was 0.0204.

For the sequence “HMIKIEDYTNKDYNKVEASLEVKGLVVNIEYKAVDDKAKYKGKEDLIIDQSVKKDATLVKGDTIILYLPK”, the “soluble fraction (log2)” value is -0.268.

Consider “HMIYWGTMVDKIYEVLSLAGKPLSLMEIYQQVKVFFPNSTKSSIEASMRLDARHRFKYDVEGHVYSLVD”, for which the “soluble fraction (log2)” value is -1.3. Take “HMNYSKQRETILKVLRSTRSHPSVNWIYENVKKEIPDVGLATVYRNLKQLEAAGEIMRIQGDFPEERWDGF”: the “soluble fraction (log2)” value was -0.911.

Take “HMKEQYDLNDREQQFISLVANGLNNKEIAETLFLSEGTVRNYLSNLLDKLGLRDRTQLAIFFYQHL”: the “soluble fraction (log2)” value is -0.953.

Regarding “HMLESPVEAIIRQIKQLITNGKLKPGDRLPAERLLAENFGVGRGYVREAIMKLEFFGLLKTSPQSGTYVAG”, the “soluble fraction (log2)” value is -0.748. As to “HMKRITKKQLSQQLEQFFSSQPGKKLTLKDIFRALHLDTHPLKMLAMDIMEEMAWDDFITKKGENAYQLNT”, the “soluble fraction (log2)” value is -0.729. Regarding “HMVDPRLRSLTPQERRILEHIAEGLTNRQIAEDMFLAEKTVKNYVTSILDKLGMDSRTQAAVYAATHPT”, the “soluble fraction (log2)” value was -0.252. For the sequence “HMQELVPGKVFEGTVTEMKNGQVTLGLSDGKTISARMEQGVSLAKGQPMLFEVKSNTGEQIAIRPVVL”, the “soluble fraction (log2)” value came to 0.169.

For “HMDRVMPVPEALIGMRFDIAVSRMLGVSRSQAAAYIDRGQVSIAGRGSQRSAQKSEKLVQGDSIEVAIA”, the “soluble fraction (log2)” value is -0.318. Regarding “HMSSSYTEMQLERFKELLNKETLLSSEKNELKNLISDFDKISEIVSPLVVGAYLQLKNEHIETINSLG”, the “soluble fraction (log2)” value was -0.192.

For “HMLTGISALKPTEAFPDEIFYEIFEIEDNIERTQYIESLRNTARQLKRVTEFNNLYKSFVLDYAQRQKQ”, the “soluble fraction (log2)” value was -1.51. In the case of “HMTLGARTLAAIQSLPKVQQAVFTMKHFEGLKYREISQITGTSEGALKASYHIALEKIKAFLREK”, the “soluble fraction (log2)” value was -2.53.

As for “HMILQTLSERVTETLRDWILHGHFKPGDKIEEVPIAERMGVSRTPVRAAFATLTNEGLIDHQPNRGYQVRV”, the “soluble fraction (log2)” value is -0.325. For the sequence “HMTEEVIIQNYIGKNFNDVRDELEAKGITVDEPNMKYSDEFKENTIMAQSIKPGQPLKPGGFNSIKFDVS”, the “soluble fraction (log2)” value came to 0.211. With “HMDDYRIEDMMTVVEEQVIRQKETNLSWFFKRAGSLNEIITIFLAALELIKVHRVYVKQEHNFDDIILRKE”, the “soluble fraction (log2)” value stood at 0.133.

The values above are taken from the domain aggregation screens of Martell et al. (2025).
